One series has as its target Khc 855-941 (Drosophila melanogaster, UniProt P17210 855-941). Briefly: EMSA.
Another series has as its target Khc-FL (Drosophila melanogaster, UniProt P17210 1-975). Briefly: EMSA.

Chain of Khc-FL (P17210 whole entry): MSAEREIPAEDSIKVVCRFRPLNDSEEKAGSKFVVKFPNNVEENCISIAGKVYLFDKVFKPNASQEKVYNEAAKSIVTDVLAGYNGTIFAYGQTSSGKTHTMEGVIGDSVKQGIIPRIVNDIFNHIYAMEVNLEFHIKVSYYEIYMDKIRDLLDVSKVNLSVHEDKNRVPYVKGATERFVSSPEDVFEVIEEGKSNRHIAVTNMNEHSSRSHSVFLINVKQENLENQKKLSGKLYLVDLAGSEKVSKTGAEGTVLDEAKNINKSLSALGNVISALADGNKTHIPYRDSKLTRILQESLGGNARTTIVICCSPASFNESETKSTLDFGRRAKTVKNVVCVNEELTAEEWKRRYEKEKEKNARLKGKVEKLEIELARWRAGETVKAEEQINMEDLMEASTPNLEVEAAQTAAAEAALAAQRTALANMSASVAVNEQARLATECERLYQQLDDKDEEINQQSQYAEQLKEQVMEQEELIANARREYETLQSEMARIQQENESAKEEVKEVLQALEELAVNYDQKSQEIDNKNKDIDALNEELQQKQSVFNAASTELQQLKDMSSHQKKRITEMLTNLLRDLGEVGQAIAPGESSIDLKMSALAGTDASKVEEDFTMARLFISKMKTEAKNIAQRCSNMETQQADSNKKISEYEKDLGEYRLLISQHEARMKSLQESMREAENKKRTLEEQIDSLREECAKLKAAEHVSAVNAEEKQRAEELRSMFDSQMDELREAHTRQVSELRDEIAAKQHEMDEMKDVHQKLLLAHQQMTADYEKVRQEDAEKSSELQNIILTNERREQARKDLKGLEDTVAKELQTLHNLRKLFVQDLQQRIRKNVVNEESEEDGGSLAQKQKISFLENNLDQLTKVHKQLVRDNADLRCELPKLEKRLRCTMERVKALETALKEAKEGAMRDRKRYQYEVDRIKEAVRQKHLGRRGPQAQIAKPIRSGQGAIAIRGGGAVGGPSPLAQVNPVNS
Chain of Khc 855-941 (P17210 855-941): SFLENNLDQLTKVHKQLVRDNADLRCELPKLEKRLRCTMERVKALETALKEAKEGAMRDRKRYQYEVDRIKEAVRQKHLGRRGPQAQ

As to UUUUUUUUUUUUUUUUUUUUUUUUU (ssRNA) [oligo-(U25) RNA], the binding result with Khc 855-941 and in the series with Khc-FL was “binds” throughout.

For the origin of these results see paper PMC8247599.
